Data as given in the supplement of paper PMC7125110.
± gives the standard error. Fewer inactive variants are shown than the library holds.

B1: glmS ribozyme (parent)
chain: AUAAAAGCGCCAGAACUACAGAAAUGUAGUUGACGAGGAGGAGGUUUAUCGAAUUUUCGGCGGAUGCCUCCAAA

Experiments:
Conditions in all cases: with glucosamine-6-phosphate
[1] = variants of: B1; test: self-cleavage kobs at 40 uM GlcN6P; higher = faster cleavage; RNA array
Outline: (§1)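 Barcoded ribozyme variants, transcribed in situ by E. coli RNA polymerase on sequenced MiSeq chips, were followed via a hybridised Cy3 probe at 37 °C. Glucosamine-6-phosphate ranged from 40 μM to 10 mM in HEPES/KCl/Mg(OAc)2 buffer. kobs came from decay fits to per-tile medians, and kcat and KM from weighted Michaelis–Menten fits.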

[2] = variants of: B1; test: self-cleavage kobs at 160 uM GlcN6P; higher = faster cleavage; RNA array
Outline: as §1

[3] = variants of: B1; test: self-cleavage kobs at 640 uM GlcN6P; higher = faster cleavage; RNA array
Outline: as §1

[4] = variants of: B1; test: self-cleavage kobs at 10000 uM GlcN6P; higher = faster cleavage; RNA array
Outline: as §1

[5] = variants of: B1; test: self-cleavage kobs at 2500 uM GlcN6P; higher = faster cleavage; RNA array
Outline: as §1

Row | Variant | self-cleavage kobs at 40 uM GlcN6P [1] [s⁻¹] | self-cleavage kobs at 160 uM GlcN6P [2] [s⁻¹] | self-cleavage kobs at 640 uM GlcN6P [3] [s⁻¹] | self-cleavage kobs at 10000 uM GlcN6P [4] [s⁻¹] | self-cleavage kobs at 2500 uM GlcN6P [5] [s⁻¹]
1 | C11G U54A | < 1e-05 | – | – | – | –
2 | A52U G59U | < 1e-05 | < 1e-05 | < 1e-05 | < 1e-05 | –
3 | A36U G66U | < 1e-05 | < 1e-05 | < 1e-05 | < 1e-05 | –
4 | C8A U30G U31C | < 1e-05 | – | – | < 1e-05 | < 1e-05
5 | G35U C68A | < 1e-05 | < 1e-05 | < 1e-05 | < 1e-05 | < 1e-05
6 | U31G C61U | < 1e-05 | < 1e-05 | < 1e-05 | – | < 1e-05
7 | G9C G63A | < 1e-05 | – | < 1e-05 | – | –
8 | A33C G44C | < 1e-05 | < 1e-05 | < 1e-05 | < 1e-05 | < 1e-05
9 | C16G U31A | 5.78e-05 ± 2.1e-05 | 4.17e-05 ± 1.9e-05 | 0.000204 ± 8.2e-05 | 0.00174 ± 0.0006 | 0.00117 ± 0.00048
10 | G35A A48U | < 1e-05 | < 1e-05 | < 1e-05 | < 1e-05 | < 1e-05
11 | U49C G63A A64C | < 1e-05 | – | – | – | –
12 | U45A G62U | < 1e-05 | < 1e-05 | < 1e-05 | – | < 1e-05
13 | C34U U49A C58A U69A | 0.000146 ± 5e-05 | – | 0.000567 ± 0.00014 | 4.63e-05 ± 2e-05 | –
14 | G7A A12C G51C A53G G66A | < 1e-05 | – | – | – | –
15 | G60U G63U | < 1e-05 | < 1e-05 | < 1e-05 | < 1e-05 | –
16 | G7U G43U C50U G51C | < 1e-05 | – | – | < 1e-05 | –
17 | A42U C58G | < 1e-05 | < 1e-05 | < 1e-05 | – | < 1e-05
18 | A6G G44A | < 1e-05 | < 1e-05 | < 1e-05 | < 1e-05 | < 1e-05
19 | C16A G38C | < 1e-05 | < 1e-05 | < 1e-05 | < 1e-05 | –
20 | A12U C16A G29A A53U | 9.7e-05 ± 2e-05 | – | – | – | –
21 | G41C A53C C61A | < 1e-05 | – | – | < 1e-05 | –
22 | G37A G59U C61U | < 1e-05 | – | – | < 1e-05 | –
23 | A42G U69C C71A | 0.000273 ± 0.00013 | – | – | – | 0.00647 ± 0.0028

Row | Variant | self-cleavage kobs at 40 uM GlcN6P [1] [s⁻¹] | self-cleavage kobs at 160 uM GlcN6P [2] [s⁻¹] | self-cleavage kobs at 640 uM GlcN6P [3] [s⁻¹] | self-cleavage kobs at 10000 uM GlcN6P [4] [s⁻¹] | self-cleavage kobs at 2500 uM GlcN6P [5] [s⁻¹]
24 | A48G A52G C58U | < 1e-05 | – | – | – | –
25 | A53U U56A C70U | 0.000179 ± 3.4e-05 | – | – | 0.00382 ± 0.0011 | –
26 | C34U C68G | 0.000563 ± 0.00025 | – | 0.00228 ± 0.0011 | 0.000463 ± 0.00015 | –
27 | A12U G13C A15C C34G | < 1e-05 | – | < 1e-05 | < 1e-05 | < 1e-05
28 | G7U G43A | < 1e-05 | < 1e-05 | < 1e-05 | < 1e-05 | < 1e-05
29 | A12U A15G C71U | 0.00147 ± 0.00036 | – | – | – | –
30 | U31C C34A C68U | < 1e-05 | – | – | < 1e-05 | –
31 | A33G C61G A64C | < 1e-05 | – | – | < 1e-05 | –
32 | G9A C50G | 0.000112 ± 1.8e-05 | 0.000137 ± 3.9e-05 | 0.00113 ± 0.00048 | 9.95e-05 ± 1.1e-05 | –
33 | A15G G60C | < 1e-05 | – | – | – | –
34 | A15U C34U | < 1e-05 | < 1e-05 | < 1e-05 | – | < 1e-05
35 | U47A C50U | < 1e-05 | – | – | 5.52e-05 ± 1.2e-05 | –
36 | A15C C50G A53G | 7e-05 ± 2.9e-05 | – | – | – | –
37 | G32U G63A C67U | < 1e-05 | – | – | < 1e-05 | < 1e-05
38 | A39U G60C | < 1e-05 | < 1e-05 | – | < 1e-05 | < 1e-05
39 | C34A U56C A64C | < 1e-05 | – | – | – | –
40 | G7A C10U U45G C70G | < 1e-05 | – | < 1e-05 | < 1e-05 | < 1e-05
41 | C10G C11A A42U | < 1e-05 | – | – | < 1e-05 | < 1e-05
42 | A6U A15C G32A G63C A64U | < 1e-05 | – | – | – | –
43 | C8A G43C C67U | < 1e-05 | – | < 1e-05 | – | < 1e-05
44 | C34G A39U C70U | < 1e-05 | – | – | – | –
45 | A36U C58U | < 1e-05 | – | < 1e-05 | < 1e-05 | < 1e-05
46 | G35A U47G | < 1e-05 | < 1e-05 | < 1e-05 | < 1e-05 | < 1e-05

Row | Variant | self-cleavage kobs at 40 uM GlcN6P [1] [s⁻¹] | self-cleavage kobs at 160 uM GlcN6P [2] [s⁻¹] | self-cleavage kobs at 640 uM GlcN6P [3] [s⁻¹] | self-cleavage kobs at 10000 uM GlcN6P [4] [s⁻¹] | self-cleavage kobs at 2500 uM GlcN6P [5] [s⁻¹]
47 | G38A U57A U65C | < 1e-05 | – | – | – | –
48 | U30C A33C U47G | < 1e-05 | – | – | < 1e-05 | –
49 | C11G U30C U31G | < 1e-05 | – | – | – | –
50 | G37U G44C | < 1e-05 | < 1e-05 | < 1e-05 | – | –
51 | G66A U69A | 8.7e-05 ± 1.7e-05 | 0.000185 ± 3.8e-05 | 0.0005 ± 9.3e-05 | 0.00178 ± 0.00037 | 0.000595 ± 0.00011
52 | C10G A33U G35U G60U | < 1e-05 | – | – | < 1e-05 | –
53 | A52U A64G C70A | < 1e-05 | – | – | – | –
54 | C61A A64C C71A | < 1e-05 | – | – | < 1e-05 | –
55 | U30G U55G C71U | 0.00027 ± 5e-05 | – | 0.00135 ± 0.00022 | 0.00591 ± 0.001 | 0.00316 ± 0.0014
56 | G35C U46G | < 1e-05 | < 1e-05 | < 1e-05 | < 1e-05 | < 1e-05
57 | G13A G35C G41U A53C U54A | < 1e-05 | – | – | – | –
58 | G38A G41U | < 1e-05 | < 1e-05 | < 1e-05 | < 1e-05 | –
59 | A53G G62A | < 1e-05 | – | < 1e-05 | < 1e-05 | –
60 | C10G G29A | < 1e-05 | – | < 1e-05 | < 1e-05 | –
61 | A6G G44U C58U G63U | < 1e-05 | – | – | – | < 1e-05
62 | U49C G60A | < 1e-05 | < 1e-05 | – | < 1e-05 | –
63 | C11G U46G C58G C67U | 0.000158 ± 4.6e-05 | – | 0.000483 ± 0.00015 | 0.000304 ± 8.1e-05 | –
64 | G44U G66U | < 1e-05 | < 1e-05 | < 1e-05 | < 1e-05 | < 1e-05
65 | A15U G63U | < 1e-05 | < 1e-05 | < 1e-05 | < 1e-05 | –
66 | A12G A36G | < 1e-05 | < 1e-05 | < 1e-05 | < 1e-05 | –
67 | U55A C61G | < 1e-05 | – | – | < 1e-05 | –
68 | A6G U57C | < 1e-05 | < 1e-05 | < 1e-05 | – | < 1e-05
69 | A53U C67U | 0.000272 ± 2.9e-05 | 0.000713 ± 8.9e-05 | 0.00132 ± 0.00019 | 0.0214 ± 0.0049 | 0.0104 ± 0.0027

Row | Variant | self-cleavage kobs at 40 uM GlcN6P [1] [s⁻¹] | self-cleavage kobs at 160 uM GlcN6P [2] [s⁻¹] | self-cleavage kobs at 640 uM GlcN6P [3] [s⁻¹] | self-cleavage kobs at 10000 uM GlcN6P [4] [s⁻¹] | self-cleavage kobs at 2500 uM GlcN6P [5] [s⁻¹]
70 | A36U U46G A53U | < 1e-05 | – | < 1e-05 | < 1e-05 | < 1e-05
71 | G7C A12G | < 1e-05 | – | – | < 1e-05 | < 1e-05
72 | C8G A48C | < 1e-05 | < 1e-05 | – | – | < 1e-05
73 | A14U U31G G38C A52U A53U | < 1e-05 | – | – | – | –
74 | C11A C70G | 2.86e-05 ± 1.2e-05 | 4.84e-05 ± 2e-05 | 0.00013 ± 2.5e-05 | 3.06e-05 ± 1.1e-05 | 5.3e-05 ± 1.3e-05
75 | A14U U56G | 0.000924 ± 0.00012 | 0.00383 ± 0.00078 | 0.0066 ± 0.0011 | 0.0462 ± 0.0095 | 0.0108 ± 0.0026
76 | G7A A42G C70U | < 1e-05 | – | – | – | < 1e-05
77 | G43C C70G | < 1e-05 | – | < 1e-05 | < 1e-05 | < 1e-05
78 | C8A C50A | < 1e-05 | < 1e-05 | < 1e-05 | < 1e-05 | < 1e-05
79 | G51A C58A | < 1e-05 | – | < 1e-05 | < 1e-05 | –
80 | G51A A64U | < 1e-05 | < 1e-05 | – | – | –
81 | G35C G41U | < 1e-05 | < 1e-05 | < 1e-05 | < 1e-05 | < 1e-05
82 | A48C U65G | < 1e-05 | < 1e-05 | – | – | –
83 | A6U G7C | < 1e-05 | – | < 1e-05 | < 1e-05 | < 1e-05
84 | C10U G44U | < 1e-05 | – | < 1e-05 | < 1e-05 | < 1e-05
85 | C10A C16A G41U | < 1e-05 | – | – | < 1e-05 | –
86 | U31C G44U U56C | < 1e-05 | – | – | – | –
87 | A33C U49C C50U | < 1e-05 | – | – | < 1e-05 | –
88 | G43U A52U | < 1e-05 | < 1e-05 | – | – | –
89 | G35A A36G A48G A53G | < 1e-05 | – | – | < 1e-05 | –
